This is an account of results in patent US20020197702.

Data set [1] deals with T1, DEVD-amc (Acetyl-Asp-Glu-Val-Asp-aminomethylcoumarin).
T1 chain: DEVD

The target in data set [2] is T2, membrane derived procaspase-3, P42574.
T2 chain: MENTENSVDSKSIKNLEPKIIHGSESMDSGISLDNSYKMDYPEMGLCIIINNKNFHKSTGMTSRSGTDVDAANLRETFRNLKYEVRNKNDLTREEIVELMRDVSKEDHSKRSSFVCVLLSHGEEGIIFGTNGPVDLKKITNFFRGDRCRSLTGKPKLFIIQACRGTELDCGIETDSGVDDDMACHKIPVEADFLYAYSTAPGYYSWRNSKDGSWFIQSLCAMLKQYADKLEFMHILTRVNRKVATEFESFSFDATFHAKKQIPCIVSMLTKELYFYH

B1: affinity purified membrane derived caspase-3 from 697 cell heavy membranes (protein)
chain 1: KNLEPKIIHGSESMDSGISLDNSYKMDYPEMGLCIIINNKNFHKSTGMTSRSGTDVDAANLRETFRNLKYEVRNKNDLTREEIVELMRDVSKEDHSKRSSFVCVLLSHGEEGIIFGTNGPVDLKKITNFFRGDRCRSLTGKPKLFIIQACRGTELDCGIETD
chain 2: SGVDDDMACHKIPVDADFLYAYSTAPGYYSWRNSKDGSWFIQSLCAMLKQYADKLEFMHILTRVNRKVATEFESFSFDATFHAKKQIPCIVSMLTKELYFYH
Consider B1, for which, in data set [1], the “KM for DEVD-AMC hydrolysis” value is listed as “The observed KM value for the purified caspase (10 uM)” and the “kcat/KM for DEVD-AMC hydrolysis” value was “must be >=400,000 M^-1sec^-1”.

B2: r-caspase-3 (His)6 (protein)
chain 1: SGISLDNSYKMDYPEMGLCIIINNKNFHKSTGMTSRSGTDVDAANLRETFRNLKYEVRNKNDLTREEIVELMRDVSKEDHSKRSSFVCVLLSHGEEGIIFGTNGPVDLKKITNFFRGDRCRSLTGKPKLFIIQACRGTELDCGIETD
chain 2: SGVDDDMACHKIPVEADFLYAYSTAPGYYSWRNSKDGSWFIQSLCAMLKQYADKLEFMHILTRVNRKVATEFESFSFDATFHAKKQIPCIVSMLTKELYFYHHHHHHH
As for B2, the “kcat/KM for DEVD-AMC hydrolysis” value in data set [1] is recorded as “the kcat/KM value for the recombinant caspase-3 (1,200,000 M^-1sec^-1)”.

B3: recombinant murine caspase-1 (protein)
chain: NKEDGTFPGLTGTLKFCPLEKAQKLWKENPSEIYPIMNTTTRTRLALIICNTEFQHLSPRVGAQVDLREMKLLLEDLGYTVKVKENLTALEMVKEVKEFAACPEHKTSDSTFLVFMSHGIQEGICGTTYSNEVSDILKVDTIFQMMNTLKCPSLKDKPKVIIIQACRGEKQGVVLLKDSVRDSEEDFLTDAIFEDDGIKKAHIEKDFIAFCSSTPDNVSWRHPVRGSLFIESLIKHMKEYAWSCDLEDIFRKVRFSFEQPEFRLQMPTADRVTLTKRFYLFPGH
With B3, in data set [2], the “activation of DEVD-AMC hydrolysis activity in heavy membranes” value is “Treatment with recombinant caspase-1 causes a rapid, robust activation of the membrane caspase” and the “time course of activation of DEVD-AMC hydrolysis activity” value is listed as “The lack of a detectable time lag in the time course plot”.
